Assay results as given in article PMC5789857 (Nature Communications, 2018).

Biological target: TBEV envelope protein (E-protein), strain Hypr, in the purified virion (tick-borne encephalitis virus, strain …, UniProt Q01299)
Assay: cell-based or functional assay

B1: Fab fragment of neutralizing mouse monoclonal antibody 19/1786 (Fab, V domains shown)
VH: EVKLEESGGGLVQPGGSLKLSCAASGFTFSSYGMSWVRQTPDKRLELVAATNSDGDSTYYPDSVKGRFTISRDRAKNTLYLQMSSLKSEDTAMYYCTRVLYDYDGEFAYWGQGTLVTVSA
VL: DIVMTQSQKFMSTSVGDRVTVTCKASQNVGTNVAWYQQKPGQSPKGLIYSASYRYSGVPDRFIGSGSGTDFTLTISNVQSGDLAEYFCQQYNNHPLTFGAGTKLELK
- neutralisation of TBEV (cytolysis of porcine kidney stable cells), EC50: 35 µg/mL
